Laboratory results from patent US20030118546A1 (Human Genome Sciences, published 2003).

Target: T1, TNFα (tumor necrosis factor alpha), soluble (UniProt P01375 77-233)
T1 construct: also called TNFa; TNF-alpha
Assay: co-precipitation with protein G-Sepharose, immunoblot with anti-Flag or anti-myc-HRP
Source text: The respective Fc-fusions were precipitated with protein G-Sepharose and co-precipitated soluble ligands were detected by immunoblotting with anti-Flag (Babco) or anti-myc-HRP (BMB).

T1 sequence (P01375 77-233 limits assumed): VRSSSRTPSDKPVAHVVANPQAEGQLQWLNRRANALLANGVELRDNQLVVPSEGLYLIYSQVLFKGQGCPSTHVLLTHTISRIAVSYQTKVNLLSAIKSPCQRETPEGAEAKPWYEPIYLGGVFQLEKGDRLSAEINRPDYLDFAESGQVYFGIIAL

B1: TRID-Fc (soluble extracellular ligand binding domain of TRID fused to the Fc portion of human immunoglobulin (IgG)) (Fc fusion)
chain: TTARQEEVPQQTVAPQQQRHSFKGEECPAGSHRSEHTGACNPCTEGVDYTNASNNEPSCFPCTVCKSDQKHKSSCTMTRDTVCQCKEGTFRNENSPEMCRKCSRCPSGEVQVSNCTSWDDIQCVEEFGANATVETPAAEETMNTSPGTPAPAAEETMNTSPGTPAPAAEETMTTSPGTPAPAAEETMTTSPGTPAPAAEETMTTSPGTPASSHY
notes: The extracellular domain is only predicted ('about 27 to about 240'); preparation is said to follow Pan et al., Science 276:111 (1997); also called Fc-extracellular domain of TRID; TNFR-5; not shown: Fc portion of human immunoglobulin (IgG)
B1: no binding.
